Assay results reported in FireProtDB (doi:10.1016/0003-9861(92)90047-z).

Conditions: Escherichia coli (strain K12); pH 7.2; Thermal; DSC; Sodium phosphate 1 mM; reversible: yes; whole UniProt chain shown

B1: Tryptophan synthase alpha chain wild type, P0A877 (protein)
chain: MERYESLFAQLKERKEGAFVPFVTLGDPGIEQSLKIIDTLIEAGADALELGIPFSDPLADGPTIQNATLRAFAAGVTPAQCFEMLALIRQKHPTIPIGLLMYANLVFNKGIDEFYAQCEKVGVDSVLVADVPVEESAPFRQAALRHNVAPIFICPPNADDDLLRQIASYGRGYTYLLSRAGVTGAENRAALPLNHLVAKLKEYNAAPPLQGFGISAPDQVKAAIDAGAAGAISGSAIVKIIEQHINEPEKMLAALKVFVQPMKAATRS
Tm: 59.5 °C
